Test results taken from patent US20230257470A1 (published 2023).

T1: human FcγRIIb (human, UniProt P31994 43-217, limits assumed)
T1 construct: Soluble analyte in SPR; also called hFcgRIIb; FcgRIIb
T1 sequence: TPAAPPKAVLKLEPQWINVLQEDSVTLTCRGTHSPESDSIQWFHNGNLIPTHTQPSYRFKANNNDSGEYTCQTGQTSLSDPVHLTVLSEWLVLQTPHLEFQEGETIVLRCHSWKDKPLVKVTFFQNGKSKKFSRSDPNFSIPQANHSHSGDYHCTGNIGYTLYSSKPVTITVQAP

T2: human FcγRIIa(H) (allotype H131) (human, UniProt P12318 36-217)
T2 construct: Soluble analyte in SPR; also called hFcgRIIa(H); FcgRIIaH
T2 sequence: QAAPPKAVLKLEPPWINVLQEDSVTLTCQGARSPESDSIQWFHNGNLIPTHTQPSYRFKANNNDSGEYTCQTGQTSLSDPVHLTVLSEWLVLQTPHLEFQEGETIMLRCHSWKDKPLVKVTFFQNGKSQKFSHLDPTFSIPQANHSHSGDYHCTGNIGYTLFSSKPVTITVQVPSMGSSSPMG

T3: human FcγRIIa(R) (allotype R131) (human, UniProt P12318 36-217)
T3 construct: Soluble analyte in SPR; also called hFcgRIIa(R); FcgRIIaR
T3 chain: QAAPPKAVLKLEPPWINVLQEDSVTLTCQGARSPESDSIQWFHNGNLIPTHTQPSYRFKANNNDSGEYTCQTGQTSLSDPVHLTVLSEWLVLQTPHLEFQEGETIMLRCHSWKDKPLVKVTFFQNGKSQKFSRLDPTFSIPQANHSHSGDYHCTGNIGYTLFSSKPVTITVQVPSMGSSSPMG


Tests used:
Experiment in all cases: SPR (Biacore), antibody captured, FcγR analyte, 25 C; normalised to captured antibody, GpH7-B3/GpL16-k0 = 100;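 further: antibodies held on sensor chips through immobilized antigen peptide, Protein A, Protein A/G or Protein L, with HBS-EP+ running buffer and FcγR in solution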
human FcγRIIb = biological target: T1, human FcγRIIb
Experimental: (§1) Interaction between each modified antibody and Fcγ receptor prepared in the manner described above was analyzed using the BIACORE™ T100 surface plasmon resonance system (GE Healthcare), BIACORE™ T200 surface plasmon resonance system (GE Healthcare), BIACORE™ A100 surface plasmon resonance system or BIACORE™ 4000 surface plasmon resonance system. HBS-EP+(GE Healthcare) was used for the running buffer, and measurements were carried out at 25° C. The chips used were chips in which antigen peptides, Protein A (Thermo Scientific), Protein A/G (Thermo Scientific) or Protein L (ACTIGEN® protein (Alltech or BioVision) were immobilized on the Series S Sensor Chip CM5 (GE Healthcare) or Series S Sensor Chip CM4 (GE Healthcare) by amine coupling, or chips in which preliminarily biotinylated antigen peptides were allowed to interact and then immobilized on the Series S Sensor Chip SA (certified) (GE Healthcare). The target antibodies were captured on these sensor chips, Fcγ receptor diluted with the running buffer was allowed to interact, followed by measurement of the amount of bound antibody. The amounts bound were compared between antibodies. However, since the amount of Fcγ receptor bound depends on the amount of captured antibody, the values used for comparison were first corrected by dividing the amount of Fcγ receptor bound by the captured amount of each antibody. Through reaction with 10 mM glycine-HCl at pH 1.5, the sensor chips were regenerated by washing off antibody captured on the sensor chips and used repeatedly.
(§2) Binding strength was evaluated according to the following method based on the results of analyzing the interaction with each FcγR. […] That value was then further multiplied by 100, and the resulting value was used as an indicator of relative binding activity to each FcγR.

[1] = biological target: T2, human FcγRIIa(H) (allotype H131)
Experimental: as §1, §2

[2] = biological target: T4, human FcγRIIIa(F) (allotype F158) (human, UniProt P08637 17-208, limits assumed)
T4 construct: also called hFcgRIIIa(F); FcgRIIIaF
Experimental: as §1, §2

[3] = biological target: T3, human FcγRIIa(R) (allotype R131)
Experimental: as §1, §2

human FcγRIa = biological target: T5, human FcγRIa (human, UniProt P12314 16-292, limits assumed)
T5 construct: Soluble analyte in SPR; also called hFcgRIa; FcgRIa
T5 sequence (P12314 16-292 limits assumed): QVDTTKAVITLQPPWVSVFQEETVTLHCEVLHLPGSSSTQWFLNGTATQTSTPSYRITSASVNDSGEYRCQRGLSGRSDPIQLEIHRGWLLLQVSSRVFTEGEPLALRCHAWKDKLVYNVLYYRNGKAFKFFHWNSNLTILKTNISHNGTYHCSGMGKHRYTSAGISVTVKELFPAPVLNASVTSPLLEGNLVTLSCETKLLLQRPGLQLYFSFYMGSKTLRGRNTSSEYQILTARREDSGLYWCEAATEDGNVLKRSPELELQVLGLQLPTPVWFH
Experimental: as §1, §2

T4 sequence (P08637 other isoform, or with tags, fused parts or gaps limits assumed): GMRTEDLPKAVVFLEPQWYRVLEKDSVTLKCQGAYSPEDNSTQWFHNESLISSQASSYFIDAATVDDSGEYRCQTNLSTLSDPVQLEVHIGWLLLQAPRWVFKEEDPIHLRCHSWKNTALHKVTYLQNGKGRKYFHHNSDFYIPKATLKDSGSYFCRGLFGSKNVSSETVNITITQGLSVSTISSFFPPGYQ

Row | Binder | relative binding activity (parent antibody = 100) (human FcγRIIb) | relative binding activity (parent antibody = 100) [1] | relative binding activity (parent antibody = 100) [2] | relative binding activity (parent antibody = 100) [3] | relative binding activity (parent antibody = 100) (human FcγRIa)
1 | GpH7-B3 variant P329H / GpL16-k0 (antibody, human IgG1, Anti-glypican-3 human IgG1 with B3 constant region (G1d with K439E); position by EU numbering) heavy: not shown light: DIVMTQSPLSLPVTPGEPASISCQASESLVHSNRNTYLHWYLQKPGQSPQLLIYKVSNRFSGVPDRFSGSGSGTDFTLKISRVEAEDVGVYYCSQNTHVPPTFGQGTKVEIE | -3 % of control | 0 % of control | -1 % of control | -1 % of control | 50 % of control
2 | GpH7-B3 variant A330P / GpL16-k0 (antibody, human IgG1, Anti-glypican-3 human IgG1 with B3 constant region; position by EU numbering) heavy: not shown light: DIVMTQSPLSLPVTPGEPASISCQASESLVHSNRNTYLHWYLQKPGQSPQLLIYKVSNRFSGVPDRFSGSGSGTDFTLKISRVEAEDVGVYYCSQNTHVPPTFGQGTKVEIE | 39 % of control | 25 % of control | 56 % of control | 42 % of control | 87 % of control
3 | GpH7-B3 variant A330S / GpL16-k0 (antibody, human IgG1, Anti-glypican-3 human IgG1 with B3 constant region; position by EU numbering) heavy: not shown light: DIVMTQSPLSLPVTPGEPASISCQASESLVHSNRNTYLHWYLQKPGQSPQLLIYKVSNRFSGVPDRFSGSGSGTDFTLKISRVEAEDVGVYYCSQNTHVPPTFGQGTKVEIE | -3 % of control | 0 % of control | 0 % of control | 0 % of control | 58 % of control
4 | GpH7-B3 variant I332K / GpL16-k0 (antibody, human IgG1, Anti-glypican-3 human IgG1 with B3 constant region; position by EU numbering) heavy: not shown light: DIVMTQSPLSLPVTPGEPASISCQASESLVHSNRNTYLHWYLQKPGQSPQLLIYKVSNRFSGVPDRFSGSGSGTDFTLKISRVEAEDVGVYYCSQNTHVPPTFGQGTKVEIE | 27 % of control | 59 % of control | – | 12 % of control | 77 % of control
5 | GpH7-B3 variant I332P / GpL16-k0 (antibody, human IgG1, Anti-glypican-3 human IgG1 with B3 constant region; position by EU numbering) heavy: not shown light: DIVMTQSPLSLPVTPGEPASISCQASESLVHSNRNTYLHWYLQKPGQSPQLLIYKVSNRFSGVPDRFSGSGSGTDFTLKISRVEAEDVGVYYCSQNTHVPPTFGQGTKVEIE | 41 % of control | 26 % of control | 14 % of control | 34 % of control | 100 % of control
6 | GpH7-B3 variant I332R / GpL16-k0 (antibody, human IgG1, Anti-glypican-3 human IgG1 with B3 constant region; position by EU numbering) heavy: not shown light: DIVMTQSPLSLPVTPGEPASISCQASESLVHSNRNTYLHWYLQKPGQSPQLLIYKVSNRFSGVPDRFSGSGSGTDFTLKISRVEAEDVGVYYCSQNTHVPPTFGQGTKVEIE | 23 % of control | 70 % of control | 61 % of control | 28 % of control | 95 % of control
7 | GpH7-B3 variant P329D / GpL16-k0 (antibody, human IgG1, Anti-glypican-3 human IgG1 with B3 constant region; position by EU numbering) heavy: not shown light: DIVMTQSPLSLPVTPGEPASISCQASESLVHSNRNTYLHWYLQKPGQSPQLLIYKVSNRFSGVPDRFSGSGSGTDFTLKISRVEAEDVGVYYCSQNTHVPPTFGQGTKVEIE | -2 % of control | -1 % of control | -1 % of control | 1 % of control | 23 % of control
8 | GpH7-B3 variant P329E / GpL16-k0 (antibody, human IgG1, Anti-glypican-3 human IgG1 with B3 constant region; position by EU numbering) heavy: not shown light: DIVMTQSPLSLPVTPGEPASISCQASESLVHSNRNTYLHWYLQKPGQSPQLLIYKVSNRFSGVPDRFSGSGSGTDFTLKISRVEAEDVGVYYCSQNTHVPPTFGQGTKVEIE | -2 % of control | 0 % of control | -1 % of control | -1 % of control | 33 % of control
9 | GpH7-B3 variant P329G / GpL16-k0 (antibody, human IgG1, Anti-glypican-3 human IgG1 with B3 constant region; position by EU numbering) heavy: not shown light: DIVMTQSPLSLPVTPGEPASISCQASESLVHSNRNTYLHWYLQKPGQSPQLLIYKVSNRFSGVPDRFSGSGSGTDFTLKISRVEAEDVGVYYCSQNTHVPPTFGQGTKVEIE | 0 % of control | 1 % of control | 4 % of control | – | 92 % of control
10 | GpH7-B3 variant P329N / GpL16-k0 (antibody, human IgG1, Anti-glypican-3 human IgG1 with B3 constant region; position by EU numbering) heavy: not shown light: DIVMTQSPLSLPVTPGEPASISCQASESLVHSNRNTYLHWYLQKPGQSPQLLIYKVSNRFSGVPDRFSGSGSGTDFTLKISRVEAEDVGVYYCSQNTHVPPTFGQGTKVEIE | 0 % of control | 5 % of control | 3 % of control | 4 % of control | 45 % of control
11 | GpH7-B3 variant P329S / GpL16-k0 (antibody, human IgG1, Anti-glypican-3 human IgG1 with B3 constant region; position by EU numbering) heavy: not shown light: DIVMTQSPLSLPVTPGEPASISCQASESLVHSNRNTYLHWYLQKPGQSPQLLIYKVSNRFSGVPDRFSGSGSGTDFTLKISRVEAEDVGVYYCSQNTHVPPTFGQGTKVEIE | 1 % of control | 1 % of control | 1 % of control | 0 % of control | 60 % of control
12 | GpH7-B3 variant P329W / GpL16-k0 (antibody, human IgG1, Anti-glypican-3 human IgG1 with B3 constant region; position by EU numbering) heavy: not shown light: DIVMTQSPLSLPVTPGEPASISCQASESLVHSNRNTYLHWYLQKPGQSPQLLIYKVSNRFSGVPDRFSGSGSGTDFTLKISRVEAEDVGVYYCSQNTHVPPTFGQGTKVEIE | 0 % of control | 0 % of control | 0 % of control | 1 % of control | 94 % of control
13 | GpH7-B3 variant P329Y / GpL16-k0 (antibody, human IgG1, Anti-glypican-3 human IgG1 with B3 constant region; position by EU numbering) heavy: not shown light: DIVMTQSPLSLPVTPGEPASISCQASESLVHSNRNTYLHWYLQKPGQSPQLLIYKVSNRFSGVPDRFSGSGSGTDFTLKISRVEAEDVGVYYCSQNTHVPPTFGQGTKVEIE | -3 % of control | 0 % of control | 0 % of control | -1 % of control | 76 % of control
14 | GpH7-B3 variant P331G / GpL16-k0 (antibody, human IgG1, Anti-glypican-3 human IgG1 with B3 constant region; position by EU numbering) heavy: not shown light: DIVMTQSPLSLPVTPGEPASISCQASESLVHSNRNTYLHWYLQKPGQSPQLLIYKVSNRFSGVPDRFSGSGSGTDFTLKISRVEAEDVGVYYCSQNTHVPPTFGQGTKVEIE | – | – | – | 13 % of control | 88 % of control
15 | GpH7-B3 variant P331K / GpL16-k0 (antibody, human IgG1, Anti-glypican-3 human IgG1 with B3 constant region; position by EU numbering) heavy: not shown light: DIVMTQSPLSLPVTPGEPASISCQASESLVHSNRNTYLHWYLQKPGQSPQLLIYKVSNRFSGVPDRFSGSGSGTDFTLKISRVEAEDVGVYYCSQNTHVPPTFGQGTKVEIE | 63 % of control | 58 % of control | 34 % of control | 72 % of control | 98 % of control
16 | GpH7-B3 variant P331R / GpL16-k0 (antibody, human IgG1, Anti-glypican-3 human IgG1 with B3 constant region; position by EU numbering) heavy: not shown light: DIVMTQSPLSLPVTPGEPASISCQASESLVHSNRNTYLHWYLQKPGQSPQLLIYKVSNRFSGVPDRFSGSGSGTDFTLKISRVEAEDVGVYYCSQNTHVPPTFGQGTKVEIE | 55 % of control | 59 % of control | 38 % of control | 64 % of control | 95 % of control
